*1 amine or outer side, *2 acyl side, *3 side chain or, on linkers, in order; H or OH if unused. Where no end group is shown, it is not given here. Side-chain parts run from the residue outwards. [ ]: non-standard residue; d: D form. The star is where a group is joined. C20 diacid = O=C(O)CCCCCCCCCCCCCCCCCCC(=O)*; γGlu = O=C(O)[C@H](CCC(=O)[*:2])N[*:1]; εLys = N[C@@H](CCCCN[*:1])C(=O)[*:2]; NMeI = CC[C@H](C)[C@H](NC)C(=O)O; pGlu = O=C1CC[C@@H](C(=O)O)N1; αMeL = CC(C)C[C@](C)(N)C(=O)O; AEEA = NCCOCCOCC(=O)O; Aib = CC(C)(N)C(=O)O
T1: human corticotropin-releasing hormone receptor 1 (CRHR1) (human, UniProt P34998 24-415)
T1 sequence (looked up): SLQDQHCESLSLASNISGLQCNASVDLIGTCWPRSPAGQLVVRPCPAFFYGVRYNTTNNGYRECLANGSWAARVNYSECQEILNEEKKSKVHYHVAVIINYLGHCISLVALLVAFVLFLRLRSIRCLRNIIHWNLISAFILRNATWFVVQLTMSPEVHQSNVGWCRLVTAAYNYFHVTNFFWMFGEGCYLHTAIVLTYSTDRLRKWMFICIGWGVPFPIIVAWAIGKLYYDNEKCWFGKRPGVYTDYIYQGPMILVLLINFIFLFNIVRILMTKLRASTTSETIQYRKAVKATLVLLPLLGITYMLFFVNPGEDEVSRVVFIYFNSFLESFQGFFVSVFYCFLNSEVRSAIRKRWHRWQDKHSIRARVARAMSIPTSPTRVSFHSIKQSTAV


How the values were obtained:
Assay in all cases: cell-based or functional assay
[1] = molecular target: T1, human corticotropin-releasing hormone …
[2] = molecular target: rat CRHR2 (endogenous on A7r5 cells) (rat, UniProt P47866 20-411)
rat CRHR2 (endogenous on A7r5 cells), sequence (P47866 20-411): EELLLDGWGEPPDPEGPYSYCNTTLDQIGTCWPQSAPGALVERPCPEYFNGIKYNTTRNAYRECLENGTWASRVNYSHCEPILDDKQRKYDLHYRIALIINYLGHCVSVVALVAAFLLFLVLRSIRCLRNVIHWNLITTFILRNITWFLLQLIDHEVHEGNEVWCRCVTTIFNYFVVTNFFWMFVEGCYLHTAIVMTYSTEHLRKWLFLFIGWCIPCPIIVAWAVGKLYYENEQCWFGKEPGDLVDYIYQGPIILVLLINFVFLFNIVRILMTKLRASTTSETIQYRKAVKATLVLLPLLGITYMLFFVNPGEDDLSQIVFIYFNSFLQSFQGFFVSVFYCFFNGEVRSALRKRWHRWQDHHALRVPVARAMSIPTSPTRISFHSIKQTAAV

[3] = molecular target: T1, human corticotropin-releasing hormone …; remark: listed apart in the source

| Binder | Y79 cAMP EC50 [1] | A7r5 cAMP EC50 [2] | hCRHR1 cAMP EC50 [3] |
| --- | --- | --- | --- |
| [NMeI]VTSLDVPIG[αMeL]LQKLLEQERAEKARQQAKEAAEILAQV-NH2 (not fully specified (residue 29)) [polypeptide comprising SEQ ID NO:50] | > 10000 nM | 0.967 nM | > 10000 nM |
| Ac-GSPSIVTS[αMeL]DVPT[Aib][αMeL]LQKILEQERAEKARQQAK([γGlu-AEEA-εLys-C20 diacid])EAAEILAQV-NH2 [polypeptide comprising SEQ ID NO:1] | 1400 nM | 0.157 nM | > 10000 nM |
| [pGlu]GSPSGIVTS[αMeL]DVPT[Aib][αMeL]LQKILEQERAEKARQQAK([γGlu-AEEA-εLys-C20 diacid])EAAEILAQV-NH2 [polypeptide comprising SEQ ID NO:22] | 2400 nM | 0.314 nM | > 10000 nM |
| [NMeI]VLSLDVPIGLLQILLEQEKQEKEKQQAKTNAQILAQV-NH2 (not fully specified (residue 29)) [Reference compound SEQ ID NO:54] | 6000 nM | 0.471 nM | > 10000 nM |
| Ac-IVTS[αMeL]D[dV]PTG[αMeL]LQIKLEQERAEKARQQAKENTEILAQV-NH2 (not fully specified (residue 29)) [polypeptide comprising SEQ ID NO:29] | 1000 nM | 0.123 nM | > 10000 nM |

From patent US20250163119A1, “COMPOUNDS FOR THE TREATMENT OF DIABETES OR OBESITY” (Eli Lilly and Company, priority 2023, published 2025)
